These results are taken from patent US20210347842A1 (Eli Lilly, published 2021).

Assay [1] deals with T1, cynomolgus monkey PD-1 (cynomolgus monkey, UniProt B0LAJ3 25-170).
T1 construct: construct not described; also called cynomologous monkey PD-1
Put plainly: not stated in the sentence (BLI named in the next sentence), 25 C.

For assay [2], the target named is T2, human PD-1 (human, UniProt Q15116 21-170). Put plainly: not stated in the sentence (BLI named in the next sentence), 25 C; 25 C; stated bound in the text.
T2 sequence (Q15116 21-170 limits assumed, form in doubt): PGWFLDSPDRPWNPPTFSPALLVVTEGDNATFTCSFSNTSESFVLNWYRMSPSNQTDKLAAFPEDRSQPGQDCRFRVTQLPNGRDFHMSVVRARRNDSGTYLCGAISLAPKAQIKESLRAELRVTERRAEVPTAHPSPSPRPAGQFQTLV
In assay [3] the target is T2, human PD-1. As to the kind of experiment: bio-layer interferometry (BLI). For orientation: In BLI a coated tip is dipped into the sample, and binding shifts an interference pattern.

T1 sequence (B0LAJ3 entry or part of it limits assumed): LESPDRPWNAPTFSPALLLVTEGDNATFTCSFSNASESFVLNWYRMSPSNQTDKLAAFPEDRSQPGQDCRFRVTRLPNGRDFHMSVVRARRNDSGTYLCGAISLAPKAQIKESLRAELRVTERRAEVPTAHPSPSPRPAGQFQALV

B1: AM0001 (antibody, human IgG4 S228P, lambda, V domains shown)
VH: EVQLLESGGGLVQPGGSLRLSCPASGFTFSSYAMSWVRQAPGKGLGWVSDISGGGGTTYYADSVKGRFTISRDNSKNTLYLQMNSLRGEDTAVYYCAKSGTVVTDFDYWGQGTLVTVSS
VL: SYVLTQPPSVSVAPGQTARVTCGGNSIGSYSVHWYQQKPGQAPVLVVYDDSDRPSGIPERFSGSNSGNTAALTISRVEAGDEADYYCQVWDTSSYWVFGGGTKLTVLG
notes: Monoclonal antibody with lambda 2 light chain and hinge-stabilized IgG4 (S228P) heavy chain; also called PD1-antagonist antibody
As to B1, the values for the Kd in assay [1], in assay [2] and in assay [3] were at most 10 pM, at most 10 pM and under 1 pM, respectively.
